We go through 24 proteins from patent publication US20030200558A1 (MONSANTO, published 2003).

Substitutions are numbered along the chain they refer to.

First the molecules themselves.
B1: β-conglycinin β subunit mutant 39335-10 (other)
chain: MDYKDDDDKLKVREDENNPFYLRSSNSFQTLFENQNGRIRLIQRFNKRSPQLENLRDYIIVQFQSKPNTILLPHHADADFIIIILSGRAILTLVNNDDRDSYNLHPGIAQRIPAGTTYYIINPHDHQNLKIIKIAIPVNKPGRYDDFFLSSTQAQQSYLQGFSHNILETSFHSEFEEINRVLLGEEEEQRQQEGVIVELSKEQIRQLSRRAKSSSRKTISSEDEPFNLRSRNPIYSNNFGKIFEITPEKTPQLRDLDIFLSSVDINEGALLLPHFNSKAIVILVINEGDANIEIVGIKEQQQKQKQEEEPLEVQRYRAELSEDDVFVIPAAYPFVVNATSNLNFLAFGINAENNQRNFLAGEKDNVVRQIERQVQELAFPGSAQDVERLLKKQRESYIVDAQPQQKEEGSKGRKGPFPSILGALY
B2: β-conglycinin β subunit mutant 39335-38 (other)
chain: B1 chain with I59R, L71I, L104I, I108D, I242F, L271I, I294L, I398F
B3: β-conglycinin β subunit mutant 39335-12 (other)
chain: B1 chain with L71I, I108D
B4: β-conglycinin β subunit mutant 39335-21 (other)
chain: B1 chain with I59R, F63I, L71I, L104I, I108D, I242F, L271I, V336I, I398F
B5: β-conglycinin β subunit mutant 39335-25 (other)
chain: B1 chain with I59R, L71I, L91I, L104I, I108D, Q110I, L260I, L271I, I398F
B6: β-conglycinin β subunit mutant 39335-29 (other)
chain: B1 chain with I59R, L71I, L104I, I108D, L260I, L271I, F344I, L345I, F347I, I398F
B7: β-conglycinin β subunit mutant 39335-20 (other)
chain: B1 chain with I59R, F63I, L71I, L91I, L104I, I108D, Q110I, L260I, L271I, I398F
B8: β-conglycinin β subunit mutant 39335-13 (other)
chain: B1 chain with I59R, L71I, L104I, I108D, I120L, I121V, I294L, I398F
B9: β-conglycinin β subunit mutant 39335-42 (other)
chain: B1 chain with I59R, F63I, L71I, L104I, I108D, Q110I, I294L, V325I, F326I, I398F
B10: β-conglycinin β subunit mutant 39335-36 (other)
chain: B1 chain with I59R, L71I, L104I, I108D, Q110I, I242F, L260I, L271I, V336I, I398F
B11: β-conglycinin β subunit mutant 39335-17 (other)
chain: MDYKDDDDKLKVREDENNPFYLRSSNSFQTLFENQNGRIRLIQRFNKRSPQLENLRDYRIVQIQSKPNTIILPHHADADFIIIILSGRAILTLVNNDDRDSYNIHPGDAIRIPAGTTYYIINPHDHQNLKIIKIAIPVNKPGRYDDFFLSSTQAQQSYLQGFSHNILETSFHSEFEEINRVLLGEEEEQRQQEGVIVELSKEQIRQLSRRAKSSSRKTISSEDEPFNLRSRNPIYSNNFGKIFEITPEKTPQLRDLDIFISSVDINEGALILPHFNSKAIVILVINEGDANIEIVGIKEQQQKQKQEEEPLEVQRYRAELSEDDIIVIPAAYPFVVNATSNLNIIAIGINAENNQRNFLAGEKDNVVRQIERQVQELAFPGSAQDVERLLKKQRESYFVDAQPQQKEEGSKGRKGPFPSILGALY
B12: β-conglycinin β subunit mutant 39335-49 (other)
chain: B11 chain with I63F, I110Q, I242F, I271L, I294L
B13: β-conglycinin β subunit mutant 39335-46 (other)
chain: B11 chain with L91I, L93I, I110Q, I242F, I271L, I294L
B14: β-conglycinin β subunit mutant 39335-51 (other)
chain: B11 chain with L91I, L93I, I242F, I271L
B15: β-conglycinin β subunit mutant 39335-26 (other)
chain: B11 chain with I63F, I110Q, I242F, I260L, I271L, I294L
B16: β-conglycinin β subunit mutant 39335-27 (other)
chain: B11 chain with L91I, V336I, I344F, I345L, I347F
B17: β-conglycinin β subunit mutant 39335-31 (other)
chain: B11 chain with I63F, L91I, L93I, V336I, I344F, I345L, I347F
B18: β-conglycinin β subunit mutant 39335-64 (other)
chain: B11 chain with L91I, L93I, I242F, L272I, V336I, I344F, I345L, I347F
B19: β-conglycinin β subunit mutant 39335-56 (other)
chain: B11 chain with L91I, L93I, I271L, V336I, I344F, I347F, F398I
B20: β-conglycinin β subunit mutant 39335-28 (other)
chain: B11 chain with I63F, L91I, I325V, I326F
B21: β-conglycinin β subunit mutant 39335-43 (other)
chain: B11 chain with I63F, I260L, I271L, I294L
B22: β-conglycinin β subunit mutant 39335-57 (other)
chain: B11 chain with L91I, L93I, I242F, I271L, I326F, V336I, I344F, I347F
B23: β-conglycinin β subunit mutant 39335-19 (other)
chain: B11 chain with L91I
B24: β-conglycinin β subunit mutant 39335-22 (other)
chain: B11 chain with L91I, L93I, V336I, I344F, I345L, I347F

This data set deals with the molecule itself. In words: sucrose gradient sedimentation, anti-FLAG western (self-assembly).
As for B1, the binding result is on record as “no binding”.

For the protein B2, the binding result is reported as “no binding”.

On to B3, for which the binding result is “no binding”.

As to B4, the binding result is given as “no binding”.

B5: the binding result is reported as “no binding”.

As to B6, the binding result is given as “no binding”.

On to B7, for which the binding result is on record as “no binding”.

As to B8, the binding result is “no binding”.

Regarding B9, the binding result is on record as “no binding”.

Regarding B10, the binding result is given as “no binding”.

Turning to B11, the binding result is “no binding”.

For B12, the binding result is “no binding”.

For the protein B13, the binding result is “no binding”.

B14: the binding result was “no binding”.

In the case of B15, the binding result is reported as “no binding”.

Turning to B16, the binding result is given as “no binding”.

For B17, the binding result is listed as “no binding”.

B18: the binding result is given as “no binding”.

Consider B19, for which the binding result is reported as “no binding”.

In the case of B20, the binding result is reported as “no binding”.

For the protein B21, the binding result is recorded as “no binding”.

B22: the binding result is “no binding”.

Take B23: the binding result was “no binding”.

For the protein B24, the binding result was “no binding”.
